Biological target: viral gp41 of HIV-1IIIB (HIV-1IIIB)
Assay: cell-based or functional assay

Row | Substance | Cell fusion (IC90) | HIV infectivity (IC90)
1 | M41, maltose binding protein fusion with the extracellular domain of HIV-1 gp41 (540-686) (from UniProt P03377 540-686) | > 50 µM | > 16 µM
2 | M41-P, M41 fusion protein with an Ile to Pro mutation at position 578 (from UniProt P0AEX9 27-392; P03377 540-686) | 0.083 µM | 0.066 µM
3 | M41-PΔ178, M41-P fusion protein from which the DP-178 region has been deleted (gp41 540-642, Ile578Pro) (from UniProt P03377 540-642) | > 50 µM | > 8 µM
